Test results from the DeepSol protein solubility set.

Experiment: soluble on expression in E. coli; label from the status in PepcDB or PDB records

Question: Which “soluble on expression in E. coli” value does the source give for “MTEVLIKVDLNQPVTENEQIHNRWHPDIPMACWVKPGEDFILETYDWTAGAIKNNDDASDVRDVDLSTVHYLSGPVGVHGAEPGDLLVVDLLDIGARADSQWGFNGFFSRQNGGGFLTDHFPMAQKAIWDFKGMMTSSRHIPGVEFAGLIHPGLIGCLPDHKMLAEWNRREQELIDTDPGRVPPLANPPHAKTAHLGKMKGGPERDLAAATGARTVPPREHGGNCDIKDLSRGSKVFFPVYVDGAGLSVGDLHFSQGDGEITFCGAIEMAGWVHMRVELIKGGMAKYGIKNPVFKPSPIVPTYNKYLIFEGISVDESGQQHYLDVNVAYRQACLNAINYMTKFGYSPAQGYALLGSAPVQGHISGIVDIPNACATLWLPTEIFKFDINPNADGPTRFIDGSIDLPIAPDKLEHHHHHH” here?
Answer: The value was “not soluble”.

Question: For “MTEYGGGEVYLLDLDSVVDGSALRMISSGGLRGRVLIHSALVDYLYSEAKRGRSAGYAGLAELSRLMDAGVGDVEIVVVEDDARVQPRDEGELKSVLRRYALRVGATLVTSDPVQARAARALGVSVLFTGRSRTGRIRIEE”, which “soluble on expression in E. coli” value is on record?
Answer: The value was “not soluble”.

Question: Which “soluble on expression in E. coli” value does the source give for “MTFKDLRDFIAQLEQRGALKRIQVPISPVLEMTEVCDRTLRAKGPALLFEKPTGFDMPVLGNLFGTPERVALGMGAEDVGALREIGKLLAQLKEPEPPKGLKDAWAKLPMYRKVLSMAPKVLKDAPCQEVVEEGEDVDLGRLPVQTCWPGDVGPLITWGLTVTRGPNKERQNLGIYRQQVIGRNKVIMRWLSHRGGALDYREWCQKHPGQPYPVAVALGADPATILGAVTPVPDTLSEYAFAGLLRGHRTELVKCRGSDLQVPASAEIVLEGVIHPGEMADEGPYGDHTGYYNEVDRFPVFTVERVTRRQKPIYHSTYTGRPPDEPAILGVALNEVFVPILQKQFPEIVDFYLPPEGCSYRMAVVTMKKQYPGHAKRVMLGVWSFLRQFMYTKFVIVTDDDIDARDWNDVIWAITTRMDPKRDTVMIDNTPIDYLDFASPVSGLGSKMGLDATHKWPGETSREWGRAIVKDEAVTRRIDALWSSLGIDAAALEHHHHHH” here?
Answer: Its value is “not soluble”.

Question: With “MTFKSATGSGQQGGSSGTSAGNPDSLKQDKISKSGDSLSVVDTGQGDDTHYANLPPSITPTSDPNALSFTNKNNAQRVQLFLRGLLDSIPVLVNKSGQDDLEHHHHHH” as the sequence, how does the “soluble on expression in E. coli” value read?
Answer: The value was “not soluble”.

Question: With “MTFQETISAYIQERYQITPDFPFKKHPDYLVFRHPRNAKWFALIMPLDAQLLGATENKQLTILTVKLAPELIALLKNQPGYFPAYHMNKEHWLSLSEEIPLSQVFSFIDESYQRSYLEHHHHHH” as the sequence, how does the “soluble on expression in E. coli” value read?
Answer: The value was “soluble”.

Question: With “MTFQVILCYETVRQVAGLESELKANGFGQAQVLPNGTVPNRGSIVDLTNAISKLGVLRATAAGLAGTISRGGAVAIVPAHFGAGGKATEIMKKYNPIVDRPAAKPSAWDDAAPFSSLLRLPVITKSQPFKGHSGTPLIIEQEGAYRSNSGEPLVIKQTGGYRSMSGTPLLLDGGPYKSFSGTPLLIEQKDAYSSFSGTPLLVDSNTLFLTRA” as the sequence, how does the “soluble on expression in E. coli” value read?
Answer: The value was “not soluble”.

Question: Which “soluble on expression in E. coli” value does the source give for “MTGFSISMDLAPKQSRSDRSTHEGTVEQRLKFFMQDVTGRALVMMESATQGQHGIAMDLVQEAFIALHKSYADKATDEWYPLFYTILNNKLQDWRRKEARRSNPFSFFKKVSLDSDEEVTDVVDETTPNPFEFLDQAVTIEEIQAAIAQLPVRQQQAFMLRAWEGFDTQTTAQIMNCSEGSVKTHYHRAIQGLRASLAHLNPSLGGSSDESR” here?
Answer: Its value is “not soluble”.

Question: For “MTGIYYLYLRQDDPKKATMRKLERFGLAKRVDIKGVGLKLVLTPYADIFLSREDAVLYEKYGLCVIEGSWNKIDSIKSLKFRIERRLPALLAANPVNYGKIGILSSVEATAAALYIIGYWDTAYALLSKFSWGLNFIKLNENPLNEYSTADRSEIKKIEESYFGLEHHHHHH”, which “soluble on expression in E. coli” value is on record?
Answer: The value was “soluble”.

Question: With “MTGQRDGASLHDALTDKQAAVLRAAFHAGYFEWPRESTAEDLAADMGVTAPTLHNHLRRAQQKLLEHHHHHH” as the sequence, how does the “soluble on expression in E. coli” value read?
Answer: Its value is “not soluble”.

Question: With “MTGRTGGNGSTQAQPERVMLVGVMLDKDGTGSSAARLNGFQTALAEAVELVKAAGGDSVRVETAKRDRPHTALFVGTGKAAELSEAVAADGIDLVVFNHELTPTQERNLEKELKCRVLDRVGLILAIFARRARTQEGRLQVELAQLSHLAGRLIRGYGHLQSQRGGIGMKGPGETKLETDRRLIAHRINALKKQLANLKKQRALRRKSRESGTIKTFALVGYTNVGKSSLFNRLTKSGIYAKDQLFATLDTTARRLYISPECSIILTDTVGFVSDLPHKLISAFSATLEETAQADVLLHVVDAAAPNSGQQIEDVENVLQEIHAGDIPCIKVYNKTDLLPSEEQNTGIWRDAAGKIAAVRISVAENTGIDALREAIAESCAAAPLEHHHHHH” as the sequence, how does the “soluble on expression in E. coli” value read?
Answer: Its value is “not soluble”.

Question: Which “soluble on expression in E. coli” value does the source give for “MTGSTAGKVLVVGALGVVGRAALEHFGQRPGLARVGLSRRAPDFAPEATWISADLRDAQATRAALAAHGDATHVVYAALNEQPDLLKGWRDSGNVDLNTRMLRNTLDALREAPLRHVTLLQGTKAYGVHTGRPMPVPARETDAVRDHANFYFDQQDLLAERAAAQGFAWTIFRPQIVLGVALGSAMNPVATLGAYAALSREAGQPLRYPGHPHLLTECTDARLIARAIAWAWDEPRAHGEAFNIANGDVVLWQPVFERLAALFGMPLGEPVDTRMREAMPEQAERWRAIAERERLAVPQLRDLIGLSWQYADATWAARHPLPVPPLVSTIKLRQAGFGDCIDTQECIVEHLREMQRLRYLPRLEHHHHHH” here?
Answer: Its value is “not soluble”.

Question: Which “soluble on expression in E. coli” value does the source give for “MTGSTETRQKEVKEPQVDVSDDSDNEAVEQELTEEQRRVAEAAGLGDHIDKQAKQSRSEKKARKLFSKLGLKQVTGVSRVCIRKSKNILFVINKPDVFKSPGSDTYIIFGEAKIEDLTQHAQMSAIENLKPTREAPQLKTVEEDENEDVEEDSTGIEEKDIELVISQANTTRNKAIRALKEADNDIVNAIMSLTM” here?
Answer: Its value is “soluble”.

Question: Which “soluble on expression in E. coli” value does the source give for “MTGVYADAVLVSVTVGDTVTLHTAGVKNLQPADVKWYFNDIRIAQLDGDLRFNCTDIQCNDRTEIFIDRLRLDRKTGALTIVNITNTHSGVYQLVVIGGGGTIFNVTVHDDPATHYNQVKKNQGESVTFNPGVRRDLIVVLKCLLNNTLIAEISVNQSQICADVQCKERFTDRLKLDNESASLTITNTNITDSGNYTSVILISSDRRFSITREKRFSLTVTSLSSSQPSGGAIAGIVVMLLLLL” here?
Answer: Its value is “not soluble”.

Question: For “MTHDNKLQVEAIKRGTVIDAIPAQIGFKLLSLFKLTETDQRITIGLNLPSGEMGRKDLIKIENTFLSEDQVDQLALYAPQATVNRIDNYEVVGKSRPSLPERIDNVLVCPNSNCISHAEPVSSSFAVRKRANDIALKCKYCEKEFSHNVVLAN”, which “soluble on expression in E. coli” value is on record?
Answer: Its value is “soluble”.

Question: With “MTHPLYIFDLDETLINGDCAMIWNEFLVDKGIVTTPDFLEEDKRLMTLYSRGLMDMEDYLIFAMSPLKNIPTDQVEILIEECVNERILPLLFPEAKILIHQLKADNVDMIVISASVSFLVKIVAKNIGIKHAIGIDLKEKNGCYTRHILGVPSYREGKVSRLTEWLNGGDKTYSALHFYTDSINDLPLCLYADHTYLVNPCEQLAVYSKKKNWPILAWGSQ” as the sequence, how does the “soluble on expression in E. coli” value read?
Answer: The value was “not soluble”.

Question: For “MTHTVHLHLEETDNLALQRLCGSFDNNLDLLAKALDIHISRRFEHFTFNGAFAHAGKRALLKLLETAQTRDLNDGDIRLAAVEAQTEDAGHQEKNHDHAYYFRTKRGSIGGRTPRQNGYIRALLNHDIVFGLGPAGTGKTYLAVAAAVDAMEKHQVERIILVRPAVEAGEKLGFLPGDLTQKVDPYLRPLYDALYDLMGFDRVTKLIEKGLIEIAPLAYMRGRTLNGAYIILDEAQNTTPEQMKMFLTRIGFGAKAVITGDTSQIDLPKNIKSGLKDAREKLHNVEGLYFHTFTGEDVVRHPLVQKIVEAYESAEHD”, which “soluble on expression in E. coli” value is on record?
Answer: Its value is “not soluble”.

Question: Which “soluble on expression in E. coli” value does the source give for “MTIATSVAGSSENFAELFNESLSHKEMRVGEVITAEIIRVDYNFVVVNAGLKSESYIPIEEFKNDRGEIEAREGDFVSVAIEALENGFGETRLSRDKAKRLNAWYELEEAMEKGKIVTGMVNGKVKGGLTATINGIRAFLPGSLVDIRPVKDMTPYENKEMEFKVIKLDRKRNNVVVSRRAVLEETQGADRDELLASLQDGAVVQGIVKNITDYGAFVDLGGIDGLLHITDLAWRRVKHPTEVINVGDEVTAKVLKFDQEKNRVSLGLKQLTEDPWIGLSRRYPQGTRIFGKVTNMTDYGAFVEIEQGIEGLVHVSEMDWTNKNVYPSKIVQLGDEVEVMILEIDEDRRRISLGMKQCRPNPWEEFSLSHEKGDKVTGQIKSITDFGLFIGLPGNIDGLVHLSDLSWNQPGEKAISEFKKGDEVEAVVLSIDVEKERISLGIKQLEGDPFNIYVASHDKNSIVKGTVKSVDAKGAVIALTDEVEGYLRASEFSRDKIEDIRSRVNEGDEIEAMIINIDRKNRSISLSVKARIQDEEDKAVKSLASVSNPASAGTTNLGALLKAKIDSKSSEELEHHHHHH” here?
Answer: The value was “soluble”.

Question: Which “soluble on expression in E. coli” value does the source give for “MTIDRVCTIGPASNNKETLAKLINNGMKIVRLNLSHGTHESHKDIIRLVKSLDDSIKILGDVQGPKIRLGEIKGEQITLQAGDSFMLRTQPVTGSSTEASVDYEGIANDVKVGSRILMNDGEVELIVEKVSTDKIETKVKTGGNISSHKGVNLPGAIVSLPAITEKDKKDIQFLLEEDVDFIACSFVRKPSHIKEIRDFIQQYKETSPNLIAKIETMEAIENFQDICKEADGIMIARGDLGVELPYQFIPLLQKMMIQECNRTNTYVITATQMLQSMVDHSIPTRAEVTDVFQAVLDGTNAVMLSAESASGEHPVESVSTLRLVSEFAEHVKKDGPFVMKDVLELLHKSLDE” here?
Answer: The value was “soluble”.

Question: With “MTIEKPKISVAFIALGNFCRSPMAEAIFKHEVEKANLENRFNKIDSFGTSNYHVGESPDHRTVSICKQHGVKINHKGKQIKTKHFDEYDYIIGMDESNINNLKKIQPEGSKAKVCLFGDWNTNDGTVQTIIEDPWYGDIQDFEYNFKQITYFSKQFLKKEL” as the sequence, how does the “soluble on expression in E. coli” value read?
Answer: Its value is “soluble”.

Question: With “MTIKLINIGFGNIISANRMISIVSPESAPIKRMIQDARDRGMLIDATYGRRTRAVVVMDSDHIILSAVQPETVAHRLSVKEEIMDEGQG” as the sequence, how does the “soluble on expression in E. coli” value read?
Answer: The value was “not soluble”.

Question: With “MTIPLWWQNGVIYQIYPKSFQDTTGSGTGDLRGVTQRLDYLQRLGVDAIWLTPFYISPQVDNGYDVANYTAIDPTYGTLDDFDELVAQAKARGIRIILDMVFNHTSTQHAWFREALNKESPYRQFYIWRDGTPDVCPNNWQSKFGGSAWRWHSQSEQYYLHLFAPEQADLNWENPAVRAELKKVCEFWADRGVDGLRLDVVNLIAKDQNFPDDPTGDGRRFYTDGPRAHTFLREMNRDVFTPRNLMTVGEMSSTTLENCQQYAALSGDELSMTFNFHHLKVDYPNGEKWTLAKPDYVALKALFRHWQQGMHNVAWNALFWCNHDQPRIVSRFGDEGEYRVPAAKMLAMALHGMQGTPYIYQGEEIGMTNPHFTRITDYRDVESHNMFAALRAAGRDPDELLAILASKSRDNSRTPMQWDNGKNAGFTQGEPWISLCDNYTEVNVEAALRDENSVFYTYQKLIALRKTQPVLIWGDYQDLLPDSPSVWCYRRQWQGQILLVVANLSNQCQEWHPPHIKGQWQALLHNYGEVASQPAAMTLRPFEAIWWLQR” as the sequence, how does the “soluble on expression in E. coli” value read?
Answer: The value was “not soluble”.

Question: For “MTIQQSVTHQLLIPITFEGKEHTTITLQRPKTKDLQAIDKKEGVEQTIAMIARLSGWPHEAISELDINDLSSIGEILESFIKRRDTSTGKPPQN”, which “soluble on expression in E. coli” value is on record?
Answer: Its value is “soluble”.

Question: With “MTISTNHSLASRQQLKQGKPFSILVLGTDVGALGRGTSYAGNTDTLELITVNPKKHTLTTTAIPRDTLVRVETKNKIEYTKINAAYALGGPREIKKQVHELLDVPVDYYALVNMGGLEKTVNAVGGVTVNNPFAFKYEGHTYPKGKQYLNGSEALGYSRMRYDDPDNDYGRQKRGQQVLLSALTKVNKSKNIMQMNSLLDTAKDNVRTDLPLDDLMTLYKNYHGALADTQSDHLQGKNATIDNFSFQIAPNWEMQRLSDNTRQALGLTKVKVNNIQTKMNDMQTNWNGYNNVNYVLPNNAQVYIPVNKVLEHHHHHH” as the sequence, how does the “soluble on expression in E. coli” value read?
Answer: The value was “soluble”.
